Laboratory results as given in patent publication US20250163182A1.

Key:
[1] = molecular target: human ENPP3 on cells (human) (UniProt O14638); experiment: flow cytometry receptor quantification on ACHN cells
[2] = molecular target: human ENPP3 on cells (human) (UniProt O14638); experiment: flow cytometry receptor quantification on 786-O cells
[3] = molecular target: human ENPP3 on cells (human) (UniProt O14638); experiment: flow cytometry receptor quantification on HUH-7 cells
[4] = molecular target: human ENPP3 on cells (human) (UniProt O14638); experiment: flow cytometry receptor quantification on Hep3B cells
[5] = molecular target: human ENPP3 on cells (human) (UniProt O14638); experiment: flow cytometry receptor quantification on KMRC20 cells
[6] = molecular target: human ENPP3 on cells (human) (UniProt O14638); experiment: flow cytometry receptor quantification on CHO-K1 ENPP3-OE cells; bar above the ULOD line
[7] = molecular target: human ENPP3 on cells (human) (UniProt O14638); experiment: flow cytometry receptor quantification on TUHR4TKB cells (Table 18 of the text prints this value under a second TUHR10TKB row)

human ENPP3 on cells (human), sequence (O14638 whole entry): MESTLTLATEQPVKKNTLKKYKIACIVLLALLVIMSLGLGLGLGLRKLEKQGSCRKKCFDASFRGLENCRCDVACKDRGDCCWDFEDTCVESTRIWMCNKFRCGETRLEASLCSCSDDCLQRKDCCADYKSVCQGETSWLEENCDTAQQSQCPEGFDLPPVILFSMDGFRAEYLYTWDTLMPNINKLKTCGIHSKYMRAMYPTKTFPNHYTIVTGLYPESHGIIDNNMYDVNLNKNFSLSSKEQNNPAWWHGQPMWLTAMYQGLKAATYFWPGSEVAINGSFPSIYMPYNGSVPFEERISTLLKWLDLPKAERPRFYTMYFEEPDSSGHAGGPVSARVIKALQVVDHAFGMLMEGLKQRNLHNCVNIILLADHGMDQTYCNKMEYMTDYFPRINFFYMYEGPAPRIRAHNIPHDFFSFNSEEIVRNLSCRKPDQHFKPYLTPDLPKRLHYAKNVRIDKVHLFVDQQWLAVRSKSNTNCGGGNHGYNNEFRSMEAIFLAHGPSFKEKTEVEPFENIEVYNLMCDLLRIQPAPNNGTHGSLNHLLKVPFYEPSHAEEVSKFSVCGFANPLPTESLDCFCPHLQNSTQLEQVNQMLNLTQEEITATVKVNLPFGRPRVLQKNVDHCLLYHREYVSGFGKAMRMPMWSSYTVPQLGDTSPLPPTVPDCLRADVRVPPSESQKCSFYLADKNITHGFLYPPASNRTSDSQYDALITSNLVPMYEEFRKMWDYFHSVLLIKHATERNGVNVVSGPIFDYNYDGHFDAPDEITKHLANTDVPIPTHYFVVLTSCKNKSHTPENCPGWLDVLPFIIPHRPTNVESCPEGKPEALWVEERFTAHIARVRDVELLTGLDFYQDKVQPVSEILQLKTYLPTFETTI

Substance: commercial ENPP3 antibody clone NP4D6
- ENPP3 Receptor Density - Antibody Binding capacity (ABC) [1]: 5000 ABC
- ENPP3 Receptor Density - Antibody Binding capacity (ABC) [2]: 4000 ABC
- ENPP3 Receptor Density - Antibody Binding capacity (ABC) [3]: 7000 ABC
- ENPP3 Receptor Density - Antibody Binding capacity (ABC) [4]: 13000 ABC
- ENPP3 Receptor Density - Antibody Binding capacity (ABC) [5]: 21000 ABC
- ENPP3 Receptor Density - Antibody Binding capacity (ABC) [6]: > 470000 ABC
- ENPP3 Receptor Density - Antibody Binding capacity (ABC) [7]: 61000 ABC
